In paper PMC3338697, “Determination of Membrane Protein Transporter Oligomerization in Native Tissue Using Spatial Fluorescence Intensity Fluctuation Analysis” (PLoS ONE, 2012):

Target: the molecule itself
Experiment: fluorescence image moment analysis; CLSM images of rat kidney cryostat sections immunolabelled with primary anti-NBCe1-A antibody and Alexa 488 secondary antibody; proximal tubule basolateral membranes; brightness normalised to non-specifically bound antibody (44±4 iu = 1 MEU)

B1: native NBCe1-A in rat kidney (proximal tubule basolateral cell membranes) (natural protein, rat (endogenous in rat kidney), UniProt Q9JI66-2 1-1035, looked up)
chain: MSTENVEGKPNNLGERGRARSSTFLRVFQPMFNHSIFTSAVSPAAERIRFILGEEDDSPAPPQLFTELDELLAVDGQEMEWKETARWIKFEEKVEQGGERWSKPHVATLSLHSLFELRTCMEKGSIMLDREASSLPQLVEMIADHQIETGLLKPDLKDKVTYTLLRKHRHQTKKSNLRSLADIGKTVSSASRMFSNPDNGSPAMTHRNLTSSSLNDISDKPEKDQLKNKFMKKLPRDAEASNVLVGEVDFLDTPFIAFVRLQQAVMLGALTEVPVPTRFLFILLGPKGKAKSYHEIGRAIATLMSDEVFHDIAYKAKDRHDLIAGIDEFLDEVIVLPPGEWDPAIRIEPPKSLPSSDKRKNMYSGGENVQMNGDTPHDGGHGGGGHGDCEELQRTGRFCGGLIKDIKRKAPFFASDFYDALNIQALSAILFIYLATVTNAITFGGLLGDATDNMQGVLESFLGTAVSGAIFCLFAGQPLTILSSTGPVLVFERLLFNFSKDHSFDYLEFRLWIGLWSAFMCLILVATDASFLVQYFTRFTEEGFSSLISFIFIYDAFKKMIKLADYYPINSDFRVGYNTHFSCACLPPDPVNLSVSNDTTLAPEDLPTVSSTDMYHNATFDWAYLSKKECVKFGGKLVGNNCDFVPDITLMSFILFLGTYTSSMAMKKFKTSRYFPTTARKLISDFAIILSILIFCVIDALVGVDTPKLIVPSEFKPTSPHRGWFVPPFGGNPWWVCLAAAIPALLVTILIFMDQQITAVIVNRKEHKLKKGAGYHLDLFWVAILMVVCSFMALPWYVAATVISIAHIDSLKMETETSAPGEQPKFLGVREQRVTGTLVFILTGLSVFMAPILKFIPMPVLYGVFLYMGVASLNGVQFMDRLKLLLMPLKHQPDFIYLRHVPLRRVHLFTSLQVLCLALLWILKSTVAAIIFPVMILALVAVRKGMDYLFSQHDLSFLDDVIPEKDKKKKEDEKKKKKKKGSLDSDNDDSDCPYSEKVPSIKIPMDITEQQPFLSDNKPLDRERSSTFLERHTSC
notes: Detected by a primary rabbit anti-NBCe1-A antibody and an Alexa 488 secondary antibody; also called endogenous NBCe1-A; immunolabeled NBCe1-A; source: endogenous, rat kidney cryostat sections (bought: Zyagen RF-901)
B1 was tested, and the “stoichiometry N” value was 2.
